In FireProtDB (doi:10.1016/j.jmb.2011.02.053):

B1: Guanyl-specific ribonuclease Sa, P05798 (parent)
chain: DVSGTVCLSALPPEATDTLNLIASDGPFPYSQDGVVFQNRESVLPTQSYGYYHEYTVITPGARTRGTRRIITGEATQEDYYTGDHYATFSLIDQTC

Variants of: B1
Conditions: Kitasatospora aureofaciens; pH 7; Thermal; Fluorescence; MOPS 30mM; transition: 2; reversible: yes; structure 1RGG; whole UniProt chain shown

DVSGTVCLSALPPEATDTLNLVASDGPFPYSQDGVVFQNRESVLPTQSYGYYHEYTVITPGARTRGTRRIITGEATQEDYYTGDHYATFSLIDQTC [I22V]
change of melting temperature, mutant - wild type (higher = more stable): -5.7 °C | ddG of mutation (higher = less stable): 1.48 kcal/mol | unfolding enthalpy (calorimetric): 74 kcal/mol

DVSGTVCASALPPEATDTLNLIASDGPFPYSQDGVVFQNRESVLPTQSYGYYHEYTVITPGARTRGTRRIITGEATQEDYYTGDHYATFSLIDQTC [L8A]
change of melting temperature, mutant - wild type (higher = more stable): -5 °C | ddG of mutation (higher = less stable): 1.34 kcal/mol | unfolding enthalpy (calorimetric): 89 kcal/mol

DVSGTVCLSALPPEATDTLNAIASDGPFPYSQDGVVFQNRESVLPTQSYGYYHEYTVITPGARTRGTRRIITGEATQEDYYTGDHYATFSLIDQTC [L21A]
change of melting temperature, mutant - wild type (higher = more stable): -1.6 °C | ddG of mutation (higher = less stable): 0.41 kcal/mol | unfolding enthalpy (calorimetric): 85 kcal/mol

DVSGTVCLSALPPEATDTLNLIASDGPFPYSQDGVVFQNRESVLPTQSYGYYHEYTVITPGARTRGTRRIITGEATQEDYYTGDHYATFSAIDQTC [L91A]
change of melting temperature, mutant - wild type (higher = more stable): -3.2 °C | ddG of mutation (higher = less stable): 0.84 kcal/mol | unfolding enthalpy (calorimetric): 91 kcal/mol

DVSGTVCLSALPPEATDTANLIASDGPFPYSQDGVVFQNRESVLPTQSYGYYHEYTVITPGARTRGTRRIITGEATQEDYYTGDHYATFSLIDQTC [L19A]
change of melting temperature, mutant - wild type (higher = more stable): -13.8 °C | ddG of mutation (higher = less stable): 3.65 kcal/mol | unfolding enthalpy (calorimetric): 73 kcal/mol

DVSGTVCLSALPPEATDTLNLIASDGPFPYSQDGVVFQNRESVLPTQSYGYYHEYTVITPGARTRGTRRIITGEATQEDYYTGDHYATFSLVDQTC [I92V]
change of melting temperature, mutant - wild type (higher = more stable): -3.9 °C | ddG of mutation (higher = less stable): 1 kcal/mol | unfolding enthalpy (calorimetric): 84 kcal/mol

DVSGTVCLSALPPEATDTLNLIASDGPFPYSQDGVVFQNRESVLPTQSYGYYHEYTVVTPGARTRGTRRIITGEATQEDYYTGDHYATFSLIDQTC [I58V]
change of melting temperature, mutant - wild type (higher = more stable): 0.11 °C | ddG of mutation (higher = less stable): 0 kcal/mol | unfolding enthalpy (calorimetric): 89 kcal/mol

DVSGTVCLSALPPEATDTLNLIASDGPFPYSQDGVVFQNRESVLPTQSYGYYHEYTVITPGARTRGTRRIVTGEATQEDYYTGDHYATFSLIDQTC [I71V]
change of melting temperature, mutant - wild type (higher = more stable): -0.3 °C | ddG of mutation (higher = less stable): 0.13 kcal/mol | unfolding enthalpy (calorimetric): 80 kcal/mol

DVSGTVCLSALPPEATDTLNLIASDGPFPYSQDGVVFQNRESVLPTQSYGYYHEYTVITPGARTRGTRRVITGEATQEDYYTGDHYATFSLIDQTC [I70V]
change of melting temperature, mutant - wild type (higher = more stable): -3.4 °C | ddG of mutation (higher = less stable): 0.94 kcal/mol | unfolding enthalpy (calorimetric): 87 kcal/mol
